This is an account of results in patent US6942981.

Ends that are not written are not given here. * marks the point of attachment. Biotin = O=C1N[C@H]2[C@H](CS[C@H]2CCCCC(=O)*)N1

The assay concerns the target GST-DLG1 PDZ domains 1-2 fusion protein (human) (UniProt Q12959). The experiment in a line: G assay titration of biotinylated peptide on immobilized GST-PDZ, saturation fit (apparent affinity).

B1: CLASP-2 C-terminal peptide AA2L (peptide)
peptide: Biotin-ISGTPTSTMVHGMTSSSSVV
Regarding B1, the Kd turned out to be 21 µM.

B2: CD95 (Apo-1/Fas) C-terminal peptide AA13L (peptide)
peptide: Biotin-KDITSDSENSNFRNEIQSLV
For B2, the Kd is 54 µM.
